The values below come from patent EP1106183A2.

pKd: −log10 of the molar value.

The target in assay [1] is human ErbB2 on BT474 human breast tumor cells (human) (UniProt P04626). The assay is described as follows: Scatchard analysis; 125I-labelled antibody on BT474 cell monolayers, 4 h on ice.
For assay [2] the target is unchanged. The assay is described as follows: cell-based or functional assay.

Broadly, the pKd is −log10 of the Kd, conventionally taken in molar units. On to “anti-ErbB2 IgG1κ murine monoclonal antibody 4D5”, for which the pKd in assay [1] is 8.19. For the same substance, in assay [2], the % apoptosis of BT474 cell population (Hoechst 33342 cell cycle analysis, 3 days) was determined as 41.9% and the proportion of S-phase cells (BT474, 3 days) is 5.4%.

As to “anti-ErbB2 IgG1κ murine monoclonal antibody 7C2”, in assay [2], the % apoptosis of BT474 cell population (Hoechst 33342 cell cycle analysis, 3 days) was found to be 60.5% and the proportion of S-phase cells (BT474, 3 days) came out at 64.9%.
